# Laboratory results from US9163227B2, “Anti-diabetic compounds” (PFIZER INC., priority 2011, dated 2015).
# “And” between values parts separate entries of the source, which are not always exact repeats. Equal entries are not always repeated. Where two headings read alike, the source gives them in different places.
# Tests used:
# [1] = target: Glut1 mRNA expression in differentiated 3T3-L1 adipocytes (Mus musculus, UniProt P16092+Q99N32); experiment: Glut1 Taqman assay; assay type: cell-based; conditions: for EC50: 6 hrs
# Method: Differentiated 3T3-L1 adipocytes were used to measure the Glut1 mRNA expression by qPCR method. Overnight serum starved day 10-14 differentiated 3T3-L1 adipocytes were treated with compounds for 6 hrs. Total RNA was extracted from these cells, and Glut1 and GAPDH mRNA expression was measured using a Quantitect Probe RT-PCR kit and running a quantitative real time PCR reaction in a Taqman machine (Applied Biosystems®). The bioactivity of the compounds was determined by a fold change in Glut1 mRNA levels normalized by the GAPDH mRNA levels from each sample. EC═values as measurements of the potency of the compounds were obtained from the dose response curves in the assay.
# 3T3-L1 adipocytes were seeded at day 8 in 24-well tissue culture plates (Falcon®, Cat#353047), and incubated in DMEM complete medium (10% FBS, 2 mM L-glutamine, 1% P/S) at 37° C., 5% CO2. […] The medium was aspirated, and then RNA extracted from the cells using the RNeasy mini Kit according to the manufacturer's instructions. RNA was measured at A260 nm using the Spectramax® Plus spectrophotometer.
# In Glut1 Taqman assay, differentiated 3T3-L1 adipocytes were used to measure the Glut1 mRNA expression by real-time quantitative PCR (qPCR) method described below. Overnight serum starved day 10-14 differentiated 3T3-L1 adipocytes were treated with compounds for 6 hrs. Total RNA was extracted from these cells, and Glut1 and GAPDH mRNA expression was measured using a Quantitect Probe RT-PCR kit and running a real time quantitative PCR reaction in a Taqman machine. The bioactivity of the compounds was determined by a fold change in Glut1 mRNA levels normalized by the GAPDH mRNA levels from each sample. In cAMP assay, Chinese hamster ovary (CHO) cells over-expressing human GLP-1R(CHO-hGLP-1R) were seeded in 96-well plates in serum-free medium with 300 uM IBMX. Cells were incubated with compounds at RT for 1 hr. The cAMP levels were measured using a CisBio cAMP Kit according to manufacturer's instructions. The bioactivity of the compounds was determined by the EC50 values obtained from the assay (see Table 42).
# [2] = Mouse pharmacokinetics of FGF21 antibody conjugates; assay type: in vivo, Swiss-Webster mice; conditions: mice
# Method: The PK of FGF21 antibody conjugates were examined in mice after IV or SC administration. […] Antibody conjugates concentrations in serum were determined using an ELISA which captured the FGF21 portion of the antibody conjugates through a monoclonal anti-hFGF21 antibody bound to a 96-well plate. FGF21 antibody conjugates bound to the plate were detected through an anti-hFc monoclonal antibody, and concentrations were determined using a standard curve of the PK dosing solution diluted into serum-containing assay buffer. SC bioavailability was calculated as the ratio of the area-under the curve (AUC) of the SC serum concentration profile divided by the AUC of the IV serum concentration profile.
# ob/ob mice = experiment: Oral glucose tolerance test in ob/ob mice (FGF21 conjugates); assay type: in vivo; conditions: ob/ob mice; for Mean Glucose AUC (% of vehicle control) during OGTT: FIGS. 4A/4B, single SC dose 3 mg/kg
# Method: (§1) The efficacy of FGF21 antibodies conjugates was evaluated in two murine obese insulin resistant models—ob/ob mice and high-fat diet-induced obese mice. For both models, male mice (6-8 weeks of age for ob/ob, 12-14 weeks of age for DIO with high-fat diet initiated at 6 weeks of age) were housed 2-4/cage and FGF21 antibody conjugates were administered by SC injection. Body weight was measured daily in the morning. Glucose tolerance was assessed by oral glucose tolerance test. Briefly, mice were fasted for 4-5 hrs in the morning of the day of testing. A basal blood sample was obtained and blood glucose levels were determined using a portable glucometer.
# [3] = Body weight and liver weight in ob/ob mice; assay type: in vivo; conditions: single SC dose 3 mg/kg; for Cumulative body weight change, mean body weight: FIG. 5A; for mean liver weight: FIG. 5B
# Method: as §1
# [4] = target: differentiated 3T3-L1 adipocytes (Mus musculus, UniProt P16092+Q99N32); experiment: Glucose uptake assay; assay type: cell-based
# Method: Differentiated 3T3-L1 adipocytes were treated with compounds in the absence of serum for 24 hrs. Cells were then incubated with ^14C-2-deoxyglucose for 1 hr and glucose uptake into the cells was quantitated in Wallac 1450 MicroBeta (Trilux) instrument. Glucose uptake was expressed in counts per min (CPM). EC50 values as measurements of the potency of the compounds were obtained from the dose response curves in the assay.
# [5] = differentiated 3T3-L1 adipocytes, protein or antibody conjugate as labelled, read-out: Glut1 Taqman assay EC50
# [6] = 3T3-L1 adipocytes, 24 hrs, unconjugated protein
# Sequence of Glut1 mRNA expression in differentiated 3T3-L1 adipocytes (P16092 22-822): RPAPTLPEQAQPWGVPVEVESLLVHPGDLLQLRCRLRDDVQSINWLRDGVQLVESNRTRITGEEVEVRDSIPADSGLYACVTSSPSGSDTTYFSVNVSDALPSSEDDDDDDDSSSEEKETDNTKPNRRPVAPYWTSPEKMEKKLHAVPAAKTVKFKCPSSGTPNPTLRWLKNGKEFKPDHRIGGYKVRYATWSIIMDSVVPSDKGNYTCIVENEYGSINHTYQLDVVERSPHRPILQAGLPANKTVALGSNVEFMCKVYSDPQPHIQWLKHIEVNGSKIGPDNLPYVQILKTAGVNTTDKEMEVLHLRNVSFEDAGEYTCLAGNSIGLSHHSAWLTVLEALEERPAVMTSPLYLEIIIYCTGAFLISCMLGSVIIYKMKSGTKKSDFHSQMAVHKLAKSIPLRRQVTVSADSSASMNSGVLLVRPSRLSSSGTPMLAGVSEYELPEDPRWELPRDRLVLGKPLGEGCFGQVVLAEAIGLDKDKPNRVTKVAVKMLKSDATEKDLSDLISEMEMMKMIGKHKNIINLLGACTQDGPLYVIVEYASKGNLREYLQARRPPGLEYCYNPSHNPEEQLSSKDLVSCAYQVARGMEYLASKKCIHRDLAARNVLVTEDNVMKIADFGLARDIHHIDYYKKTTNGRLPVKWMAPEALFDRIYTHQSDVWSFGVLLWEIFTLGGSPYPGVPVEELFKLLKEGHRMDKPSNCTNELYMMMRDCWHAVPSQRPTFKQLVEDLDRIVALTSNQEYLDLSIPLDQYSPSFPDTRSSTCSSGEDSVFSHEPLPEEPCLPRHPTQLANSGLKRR
# Sequence of Glut1 mRNA expression in differentiated 3T3-L1 adipocytes (Q99N32 whole entry): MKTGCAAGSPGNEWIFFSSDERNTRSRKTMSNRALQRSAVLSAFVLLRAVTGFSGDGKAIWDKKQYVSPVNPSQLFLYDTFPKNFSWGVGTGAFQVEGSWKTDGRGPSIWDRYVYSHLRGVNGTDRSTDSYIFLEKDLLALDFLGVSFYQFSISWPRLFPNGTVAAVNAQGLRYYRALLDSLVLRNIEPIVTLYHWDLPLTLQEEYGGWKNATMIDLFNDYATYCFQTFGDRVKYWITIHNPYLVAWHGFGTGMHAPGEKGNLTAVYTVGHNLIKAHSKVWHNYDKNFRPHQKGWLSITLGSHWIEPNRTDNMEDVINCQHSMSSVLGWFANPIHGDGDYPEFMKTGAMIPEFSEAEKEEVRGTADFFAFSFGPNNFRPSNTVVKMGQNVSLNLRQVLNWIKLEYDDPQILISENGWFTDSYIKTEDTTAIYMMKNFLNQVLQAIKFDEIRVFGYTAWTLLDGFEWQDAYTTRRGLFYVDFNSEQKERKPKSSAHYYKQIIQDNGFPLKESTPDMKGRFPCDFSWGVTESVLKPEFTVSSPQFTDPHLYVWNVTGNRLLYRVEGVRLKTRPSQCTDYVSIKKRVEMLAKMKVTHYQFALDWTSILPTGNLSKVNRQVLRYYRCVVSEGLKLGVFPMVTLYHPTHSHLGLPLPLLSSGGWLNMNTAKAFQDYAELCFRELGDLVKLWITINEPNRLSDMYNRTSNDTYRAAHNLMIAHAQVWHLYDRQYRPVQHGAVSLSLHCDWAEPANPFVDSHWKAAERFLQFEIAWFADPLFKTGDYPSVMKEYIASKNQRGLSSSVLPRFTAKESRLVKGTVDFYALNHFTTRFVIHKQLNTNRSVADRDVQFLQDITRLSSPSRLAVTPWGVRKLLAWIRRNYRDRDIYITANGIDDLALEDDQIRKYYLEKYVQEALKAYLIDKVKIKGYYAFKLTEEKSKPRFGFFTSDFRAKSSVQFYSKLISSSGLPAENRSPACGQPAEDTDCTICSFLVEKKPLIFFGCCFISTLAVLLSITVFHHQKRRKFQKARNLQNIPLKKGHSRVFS
# Sequence of differentiated 3T3-L1 adipocytes (P16092 22-822): as the sequence (P16092 22-822) above
# Sequence of differentiated 3T3-L1 adipocytes (Q99N32 whole entry): as the sequence (Q99N32 whole entry) above
molecule,measurement,setting,value
"Ab-L5-FGF21ΔH-K59: SEQ ID NO:19 combined with L5 at K59 and conjugated with h38C2 (conjugate, listed as Homo sapiens, L5 linker at K59 conjugated to h38C2 antibody) PIPDSSPLLQFGGQVRQRYLYTDDAQQTEAHLEIREDGTVGGAADQSPESLLQLRALKPGVIQILGVRTSRFLCQRPDGALYGSLHFDPEACSFRELLLEDGYNVYQSEAHGLPLHLPGNRSPHRDPAPRGPARFLPLPGLPPALPEPPGILAPQPPDVGSSDPLSMVGPSQGRSPSYAS",EC50,[1]; [5],6.5 nM
same,IV half-life,[2],13 h
same,Mean Glucose AUC (% of vehicle control) during OGTT,ob/ob mice,105 % of vehicle control
same,"Cumulative body weight change, mean body weight",[3],2.7 g
same,mean liver weight,[3],2.4 g
"Ab-L5-FGF21ΔH-Knull-H1K: SEQ ID NO:23 combined with L5 at H1K and conjugated with h38C2 (conjugate, listed as Homo sapiens, L5 linker at K1 conjugated to h38C2 antibody) KPIPDSSPLLQFGGQVRQRYLYTDDAQQTEAHLEIREDGTVGGAADQSPESLLQLRALRPGVIQILGVRTSRFLCQRPDGALYGSLHFDPEACSFRELLLEDGYNVYQSEAHGLPLHLPGNRSPHRDPAPRGPARFLPLPGLPPALPEPPGILAPQPPDVGSSDPLSMVGPSQGRSPSYAS",Mean Glucose AUC (% of vehicle control) during OGTT,ob/ob mice,100 % of vehicle control
same,glucose tolerance in ob/ob mice (in words),ob/ob mice,compared poorly against Ab-FGF21ΔH-H125C
same,"Cumulative body weight change, mean body weight",[3],2.6 g
same,mean liver weight,[3],2.4 g
"FGF21ΔH-K56-K59R-K69R-K122R: FGF21 lysine mutant, SEQ ID NO:18 (protein, listed as Homo sapiens) PIPDSSPLLQFGGQVRQRYLYTDDAQQTEAHLEIREDGTVGGAADQSPESLLQLKALRPGVIQILGVRTSRFLCQRPDGALYGSLHFDPEACSFRELLLEDGYNVYQSEAHGLPLHLPGNRSPHRDPAPRGPARFLPLPGLPPALPEPPGILAPQPPDVGSSDPLSMVGPSQGRSPSYAS",EC50,[1]; [5],0.9 nM
same,EC50,[4]; [6],5.5 nM
"FGF21ΔH-K56R-K59-K69R-K122R: FGF21 lysine mutant, SEQ ID NO:19 (protein, listed as Homo sapiens) PIPDSSPLLQFGGQVRQRYLYTDDAQQTEAHLEIREDGTVGGAADQSPESLLQLRALKPGVIQILGVRTSRFLCQRPDGALYGSLHFDPEACSFRELLLEDGYNVYQSEAHGLPLHLPGNRSPHRDPAPRGPARFLPLPGLPPALPEPPGILAPQPPDVGSSDPLSMVGPSQGRSPSYAS",EC50,[1]; [5],0.6 nM
same,EC50,[4]; [6],0.9 nM
"FGF21ΔH-K56R-K59R-K69-K122R: FGF21 lysine mutant, SEQ ID NO:20 (protein, listed as Homo sapiens) PIPDSSPLLQFGGQVRQRYLYTDDAQQTEAHLEIREDGTVGGAADQSPESLLQLRALRPGVIQILGVKTSRFLCQRPDGALYGSLHFDPEACSFRELLLEDGYNVYQSEAHGLPLHLPGNRSPHRDPAPRGPARFLPLPGLPPALPEPPGILAPQPPDVGSSDPLSMVGPSQGRSPSYAS",EC50,[1]; [5],1.3 nM
same,EC50,[4]; [6],5.2 nM
"Ab-L5-FGF21ΔH-Knull-P2: SEQ ID NO:22 combined at the N' terminus of P2 with L5 and conjugated with h38C2 (conjugate, listed as Homo sapiens, L5 linker at N-terminus, conjugated to h38C2 antibody) PIPDSSPLLQFGGQVRQRYLYTDDAQQTEAHLEIREDGTVGGAADQSPESLLQLRALRPGVIQILGVRTSRFLCQRPDGALYGSLHFDPEACSFRELLLEDGYNVYQSEAHGLPLHLPGNRSPHRDPAPRGPARFLPLPGLPPALPEPPGILAPQPPDVGSSDPLSMVGPSQGRSPSYAS",EC50,[1]; [5],16.6 nM
same,IV half-life,[2],17 h
"FGF21ΔH-Knull-H1K: FGF21 lysine-null mutant with H1K, SEQ ID NO:23 (protein, listed as Homo sapiens) KPIPDSSPLLQFGGQVRQRYLYTDDAQQTEAHLEIREDGTVGGAADQSPESLLQLRALRPGVIQILGVRTSRFLCQRPDGALYGSLHFDPEACSFRELLLEDGYNVYQSEAHGLPLHLPGNRSPHRDPAPRGPARFLPLPGLPPALPEPPGILAPQPPDVGSSDPLSMVGPSQGRSPSYAS",EC50,[1]; [5],6.4 nM and 4.3 nM
same,IV half-life,[2],16 h
same,SC bioavailability,[2],51%
same,SC half-life,[2],11 h
"FGF21ΔH-Knull-S181K: FGF21 lysine-null mutant with S181K, SEQ ID NO:24 (protein, listed as Homo sapiens) PIPDSSPLLQFGGQVRQRYLYTDDAQQTEAHLEIREDGTVGGAADQSPESLLQLRALRPGVIQILGVRTSRFLCQRPDGALYGSLHFDPEACSFRELLLEDGYNVYQSEAHGLPLHLPGNRSPHRDPAPRGPARFLPLPGLPPALPEPPGILAPQPPDVGSSDPLSMVGPSQGRSPSYAK",EC50,[1]; [5],7.5 nM
"Ab-L5-FGF21ΔH-Knull-S181K: SEQ ID NO:24 combined with L5 at S181K and conjugated with h38C2 (conjugate, listed as Homo sapiens, L5 linker at K181 conjugated to h38C2 antibody) PIPDSSPLLQFGGQVRQRYLYTDDAQQTEAHLEIREDGTVGGAADQSPESLLQLRALRPGVIQILGVRTSRFLCQRPDGALYGSLHFDPEACSFRELLLEDGYNVYQSEAHGLPLHLPGNRSPHRDPAPRGPARFLPLPGLPPALPEPPGILAPQPPDVGSSDPLSMVGPSQGRSPSYAK",EC50,[1]; [5],> 500 nM
"FGF21ΔH-H125C: FGF21 cysteine mutant, SEQ ID NO:7 (protein, listed as Homo sapiens) PIPDSSPLLQFGGQVRQRYLYTDDAQQTEAHLEIREDGTVGGAADQSPESLLQLKALKPGVIQILGVKTSRFLCQRPDGALYGSLHFDPEACSFRELLLEDGYNVYQSEAHGLPLHLPGNKSPCRDPAPRGPARFLPLPGLPPALPEPPGILAPQPPDVGSSDPLSMVGPSQGRSPSYAS",EC50,[1]; [5],1.2 nM
"FGF21ΔH-A129C: FGF21 cysteine mutant, SEQ ID NO:10 (protein, listed as Homo sapiens) PIPDSSPLLQFGGQVRQRYLYTDDAQQTEAHLEIREDGTVGGAADQSPESLLQLKALKPGVIQILGVKTSRFLCQRPDGALYGSLHFDPEACSFRELLLEDGYNVYQSEAHGLPLHLPGNKSPHRDPCPRGPARFLPLPGLPPALPEPPGILAPQPPDVGSSDPLSMVGPSQGRSPSYAS",activity in Glut1 Taqman assay (in words),[1]; 3T3-L1 adipocytes,dose-dependent Glut1 induction
same,EC50,"[1]; 3T3-L1 adipocytes, serum-free DMEM 0.2% BSA, Taqman quantitative real-time PCR, read-out: Glut1 RNA expression EC50",16 nM
same,EC50,[1]; [5],1.4 nM
"FGF21ΔH-L86C: FGF21 cysteine mutant, SEQ ID NO:14 (protein, listed as Homo sapiens) PIPDSSPLLQFGGQVRQRYLYTDDAQQTEAHLEIREDGTVGGAADQSPESLLQLKALKPGVIQILGVKTSRFLCQRPDGALYGSCHFDPEACSFRELLLEDGYNVYQSEAHGLPLHLPGNKSPHRDPAPRGPARFLPLPGLPPALPEPPGILAPQPPDVGSSDPLSMVGPSQGRSPSYAS",EC50,"[4]; unconjugated protein (per Examples 18-21), n in parentheses",62 nM
